Measurements from the supplement of paper PMC9732359.
± gives the uncertainty stated by the source.

Assay: protein stability index of a GFP-peptide fusion (yeast GPS) (PSI 1-4); higher = more stable; sorted into four equal gates, so the index is relative within each strain
Method in brief: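 Plasmids in a pooled yeast library fused tiled 17-residue yeast protein peptides downstream of GFP and also expressed Cherry. Mid-log cultures grown without leucine were sorted into four equal gates by GFP/Cherry fluorescence ratio. Each gate's plasmids were PCR-amplified and Illumina-sequenced, and reads were matched to strains by barcodes. The protein stability index is derived by multiplying each gate's read frequency by its gate number and summing the results.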

Sequence | protein stability index (pdr5∆) | protein stability index (san1∆) | protein stability index (ubr1∆) | protein stability index (doa10∆)
RALRRALTKFEASQVTE [RPL35A] | 2.56 ± 0.14 | 3.11 ± 0.097 | 3.19 ± 0.1 | 
GTISKLENKENGLLNEI [SMC2] | 3.28 ± 0.087 | 3.36 ± 0.1 | 3.35 ± 0.17 | 3.45 ± 0.29
ADYRLILTGTPLQNNLP [SNF2] | 2.15 ± 0.043 | 1.65 ± 0.058 | 2.03 ± 0.037 | 2.08 ± 0.047
EAKKFEPTYRLVRYGLA [RPS24A] | 3.11 ± 0.095 | 2.79 ± 0.13 | 2.88 ± 0.049 | 2.83 ± 0.14
SKTHKTVSRAYGGSRCA [RPL34A] | 2.91 ± 0.054 | 2.82 ± 0.064 | 2.85 ± 0.048 | 2.68 ± 0.071
QLFRTNKVQIMIATNVA [PRP28] | 1.43 ± 0.064 | 1.48 ± 0.081 | 1.7 ± 0.036 | 1.5 ± 0.055
KQINEARDEILPLRLQF [PGD1] | 2.63 ± 0.077 | 2.4 ± 0.074 | 2.77 ± 0.052 | 2.13 ± 0.065
FGSADDTYPYLTGEWST [FAS1] | 1.32 ± 0.047 | 1.21 ± 0.086 | 1.28 ± 0.072 | 2.32 ± 0.067
MMENYQNISPVYSVDPL [PRP8] | 1.88 ± 0.058 | 2.21 ± 0.064 | 1.74 ± 0.044 | 2.08 ± 0.049
KSTDLTPKGNESEQELS [MTR3] | 2.9 ± 0.089 | 2.46 ± 0.089 | 3.21 ± 0.054 | 3.39 ± 0.11
VMLLGTPDANLISKPAK [UBP6] | 3.28 ± 0.13 | 2.98 ± 0.13 | 3.32 ± 0.12 | 
KARSPGIAKPNAIQTEV [SIR4] | 3.35 ± 0.092 | 3.18 ± 0.075 | 3.22 ± 0.066 | 3.36 ± 0.067
NGDNSTTTNTDQNNATM [SNF12] | 2.2 ± 0.069 | 2.52 ± 0.097 | 1.99 ± 0.051 | 2.4 ± 0.069
KSPEQCILRFLQLPIED [SWI3] | 2.3 ± 0.062 | 1.76 ± 0.12 | 1.41 ± 0.038 | 1.81 ± 0.067
TGNFIIPSGNVWNYTFM [PRP8] | 2.95 ± 0.12 | 2.88 ± 0.077 | 3.18 ± 0.12 | 3.05 ± 0.095
HKMGVERSSKRLAKKPS [SIR3] | 3.27 ± 0.067 | 3.24 ± 0.043 | 3.15 ± 0.062 | 3.33 ± 0.064
VFSHAQTAVTCESCSTV [RPS27B] | 2.46 ± 0.14 | 2.24 ± 0.15 | 2.04 ± 0.11 | 1.57 ± 0.13
DLVKPKNPKFSNAFYSV [SMC4] | 2.42 ± 0.064 | 2.26 ± 0.074 | 2.82 ± 0.067 | 2.43 ± 0.062
TSMTGDANLLEEGETSR [SWI3] | 3.35 ± 0.097 | 3.2 ± 0.037 | 3.3 ± 0.041 | 3.2 ± 0.092
VKESNNYYSNKSNSTGN [REC8] | 2.71 ± 0.085 | 2.56 ± 0.07 | 2.97 ± 0.046 | 2.44 ± 0.067
ELTSFSSQPLEPLSDTE [DSN1] | 3.12 ± 0.096 | 3.29 ± 0.065 | 3.21 ± 0.076 | 3.34 ± 0.11
SVNPAMLPGSSNGGGKV [RPO31] | 3.36 ± 0.12 | 3.07 ± 0.08 | 3.08 ± 0.06 | 2.98 ± 0.071
LKPKLYYEQFRPDLIKE [SIR3] | 3.15 ± 0.06 | 3.25 ± 0.05 | 3.33 ± 0.045 | 3.06 ± 0.073
VKVVDAGNKVGQSEASL [RPP0] | 3.58 ± 0.22 |  |  | 
NPMKKHKPNEGRTPNIS [SIR4] | 2.86 ± 0.055 | 2.88 ± 0.052 | 2.97 ± 0.036 | 2.88 ± 0.068
VASLSKRNKLLTIFDSV [YJL039C/NUP192] | 1.93 ± 0.048 | 2.28 ± 0.063 | 1.89 ± 0.048 | 1.98 ± 0.059
NTYKRLVIGIFKRDLLR [YJL039C/NUP192] | 1.58 ± 0.083 | 1.31 ± 0.13 | 1.59 ± 0.055 | 2.5 ± 0.082

Sequence | protein stability index (pdr5∆) | protein stability index (san1∆) | protein stability index (ubr1∆) | protein stability index (doa10∆)
THAQRTGLSQIPNRRFT [PRP8] | 2.62 ± 0.047 | 2.83 ± 0.048 | 2.88 ± 0.043 | 2.8 ± 0.048
DFNEIVQYLSGAHGNSD [POP3] | 1.22 ± 0.14 | 1.18 ± 0.21 | 1.28 ± 0.11 | 1.24 ± 0.096
SMKMELLKKELLTIEPK [SMC2] | 2.69 ± 0.064 | 2.8 ± 0.07 | 2.61 ± 0.053 | 2.85 ± 0.081
TGVVYNVTKSSVGVIIN [RPL21A] | 2.6 ± 0.057 | 1.95 ± 0.095 | 2.18 ± 0.067 | 2.07 ± 0.09
LSSETGIKLALDPNLIT [SRB4] | 3 ± 0.054 | 2.92 ± 0.056 | 2.51 ± 0.034 | 2.6 ± 0.052
DSTPEEVSCKLLETITY [YML103C/NUP188] | 2.82 ± 0.086 | 2.47 ± 0.075 | 2.79 ± 0.092 | 2.47 ± 0.077
KFEPLYPREEEEDYNEF [PRP8] | 3.31 ± 0.13 | 3.12 ± 0.072 | 3.37 ± 0.096 | 3.35 ± 0.15
KNQHRAASWYGSFNEMK [RMP1] | 3.21 ± 0.055 | 3.12 ± 0.042 | 3.18 ± 0.038 | 2.89 ± 0.048
KIKHGSVTEIPLKLSGE [YMR129W/POM152] | 2.93 ± 0.057 | 2.58 ± 0.072 | 2.97 ± 0.086 | 2.77 ± 0.07
PVKLDENSANSTVASAL [SIR4] | 3.09 ± 0.081 | 2.76 ± 0.09 | 2.9 ± 0.074 | 2.9 ± 0.13
RILKNKAEYLKNCPITQ [RPC40] | 3.12 ± 0.048 | 3.02 ± 0.04 | 2.83 ± 0.037 | 2.96 ± 0.052
TNVQRIAAYIRRHRNPD [SMC1] | 3.32 ± 0.22 | 3.29 ± 0.18 | 3.04 ± 0.16 | 3.1 ± 0.24
SSDDRVKVLAATNRVDV [RPT5] | 2.95 ± 0.26 | 2.88 ± 0.15 |  | 2.66 ± 0.18
ILNSHFDALRSLDDNST [YJL041W/NSP1] | 2.07 ± 0.046 | 2.53 ± 0.064 | 2.55 ± 0.036 | 2.36 ± 0.054
RINTLPQVQLPVRALIV [ECM29] | 1.93 ± 0.26 |  |  | 
LNNLPYKNEDVTALLEQ [YCS4] | 3.09 ± 0.05 | 3.05 ± 0.047 | 2.99 ± 0.056 | 2.9 ± 0.058
QITPTVPHSHPSDMVIP [SNF12] | 2.59 ± 0.045 | 2.63 ± 0.046 | 2.59 ± 0.034 | 2.69 ± 0.044
SGVKNDILQSLSGGGHD [CDC53] | 3.09 ± 0.077 | 2.71 ± 0.068 | 2.8 ± 0.048 | 3.09 ± 0.075
ESFAELMTKLNSFKLFK [RPC17] | 2.71 ± 0.086 | 1.59 ± 0.099 | 2.06 ± 0.081 | 3.03 ± 0.1
VETNTTVLADEFIAHRL [RPB3] | 3.18 ± 0.054 | 3.19 ± 0.04 | 3.22 ± 0.033 | 3.05 ± 0.058
RVKVHFDQAGKKVSRRN [RPL13A] | 3.37 ± 0.1 | 3.26 ± 0.12 | 3.31 ± 0.079 | 3.46 ± 0.12
NMLPQRQSSVGSLNATN [SNF2] | 3.3 ± 0.073 | 2.78 ± 0.052 | 3.08 ± 0.046 | 2.8 ± 0.082
CQILDGELDVLQIESVT [PRP8] | 2.78 ± 0.062 | 2.55 ± 0.065 | 2.86 ± 0.059 | 2.56 ± 0.05
KTQQNEKSENGENDDDT [RPN3] | 3.41 ± 0.18 | 2.92 ± 0.13 | 3.34 ± 0.11 | 3.04 ± 0.19
DVDMEDRNLTEFDSTDT [RRI1] | 3.09 ± 0.12 | 2.71 ± 0.13 | 3.01 ± 0.055 | 2.93 ± 0.12
YDPKDALKNACNSIINK [RPB11] | 3.23 ± 0.14 | 3.2 ± 0.084 | 3.37 ± 0.15 | 3.32 ± 0.24
